Assay [1] deals with SK23 melanoma cells. Briefly: Cell Titer Glo viability of melanoma cell line SK23. Format: cell-based, human. Particulars: six days, antibodies 20 mg/ml, DAPT 5 μM, ± Jagged-1. As for the experimental part:
(§1) Human melanoma cell lines SK23 and LOX-IMVI were plated in medium containing 2% FBS at low density (4000 cells/well for SK23, 2500 cells/well for LOX-IMVI) in 96 well plates that were coated without (−jag-1) or with Jagged-1 ligand (+jag-1) (R&D Systems, Minneapolis, Minn.). […] An equal volume of DMSO served as the vehicle control, whereas an equal concentration of anti-gD HuB6 phage antibody served as the isotype control antibody. Cell Titer Glo assays (Promega, Madison, Wis.) were performed six days after plating. […] In FIGS. 25A and 25B, cell viability (y-axis) is expressed relative to the values from the DMSO vehicle, −jag-1 control wells.
In general terms: Cellular ATP, detected with luciferase, serves as a proxy for viable cell number.

The subject of assay [2] is LOX-IMVI melanoma cells. Nature of the assay: Cell Titer Glo viability of melanoma cell line LOX-IMVI. Type of assay: cell-based, human. Particulars: six days, antibodies 20 mg/ml, DAPT 5 μM, ± Jagged-1. On the procedure:
as §1

B1: anti-NRR2: affinity matured form of Antibody D, phage library-derived human anti-Notch2 NRR monoclonal antibody (antibody, V domains shown)
VH: EVQLVESGGGLVQPGGSLRLSCAASGYTFSSYGMSWVRQAPGKGLEWVSYIYPYSGATYYADSVKGRFTISADTSKNTAYLQMNSLRAEDTAVYYCARHSGYYRISSAMDVWGQGTLVTVSA
VL: DIQMTQSPSSLSASVGDRVTITCRASQNIKRFLAWYQQKPGKAPKLLIYGASTRESGVPSRFSGSGSGTDFTLTISSLQPEDFATYYCQQYYRSPHTFGQGTKVEIKR
On to B1, for which the cell viability entry in assay [1] and in assay [2] was “decrease in viability” in each case.

Values taken from US8404239B2, “Anti-Notch2 NRR antibodies” (Genentech, Inc., priority 2008, dated 2013).
